No end group written: not given here.

For the first test, the target named is T1, IL-17A (agonist in the IL-17RA/IL17RC dimerization assay) (UniProt Q16552 24-155). The test is described as follows: cell-based or functional assay.
T1 sequence (Q16552 24-155 limits assumed): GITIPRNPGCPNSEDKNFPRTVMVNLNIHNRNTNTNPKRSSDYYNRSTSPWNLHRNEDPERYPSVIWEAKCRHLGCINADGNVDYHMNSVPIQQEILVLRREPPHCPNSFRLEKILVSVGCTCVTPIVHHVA
Take Ac-VPGAGVPGAGIHVTIPA-NH2 [peptide of SEQ ID NO: 157]: the “IC50 in IL-17RA/IL7RC dimerization assay” value is under 500 nM. Consider Ac-VHFQFPQDLWEFVRR-NH2 [peptide of SEQ ID NO: 140], for which the “IC50 in IL-17RA/IL7RC dimerization assay” value is under 500 nM. Consider Ac-IKVTIPADLWDWINK-NH2 [peptide of SEQ ID NO: 163], for which the “IC50 in IL-17RA/IL7RC dimerization assay” value was under 10000 nM.

In the case of Ac-PHVTIPADLWDWINK-NH2 [peptide of SEQ ID NO: 161], the “IC50 in IL-17RA/IL7RC dimerization assay” value is under 10000 nM. The same measure, in the same setting: under Ac-VHFTFPQDLYNWVRR-NH2 [peptide of SEQ ID NO: 147] stands under 500 nM. On to Ac-VHFTFPQDLWEFVRR-NH2 [peptide of SEQ ID NO: 128], for which the “IC50 in IL-17RA/IL7RC dimerization assay” value was under 500 nM. As to Ac-VHVTIPADLWEWFRR-NH2 [peptide of SEQ ID NO: 121], the “IC50 in IL-17RA/IL7RC dimerization assay” value was under 500 nM. Turning to Ac-VHFTFPQDLWNWVRR-NH2 [peptide of SEQ ID NO: 127], the “IC50 in IL-17RA/IL7RC dimerization assay” value was under 500 nM.

Turning to Ac-VHVQIPADFWEWFRR-NH2 [peptide of SEQ ID NO: 143], the “IC50 in IL-17RA/IL7RC dimerization assay” value was under 500 nM. Take Ac-IRVTIPADLWDWINK-NH2 [peptide of SEQ ID NO: 162]: the “IC50 in IL-17RA/IL7RC dimerization assay” value is under 10000 nM. Take Ac-IHVTIPAELWDWINK-NH2 [peptide of SEQ ID NO: 5]: the “IC50 in IL-17RA/IL7RC dimerization assay” value is under 100 nM. Turning to Ac-VHFTFPQDLWEWFRR-NH2 [peptide of SEQ ID NO: 129], the “IC50 in IL-17RA/IL7RC dimerization assay” value was under 500 nM. For the molecule Ac-VPGAGVPGAGIHVTI-NH2 [peptide of SEQ ID NO: 156], the “IC50 in IL-17RA/IL7RC dimerization assay” value is under 500 nM. Turning to Ac-IHVTIPADLWDWINE-NH2 [peptide of SEQ ID NO: 12], the “IC50 in IL-17RA/IL7RC dimerization assay” value was under 200 nM.

Take Ac-IHVTIPADLWDWIRK-NH2 [peptide of SEQ ID NO: 9]: the “IC50 in IL-17RA/IL7RC dimerization assay” value was under 300 nM. Regarding Ac-VHVTIPAEWWEWVRR-NH2 [peptide of SEQ ID NO: 123], the “IC50 in IL-17RA/IL7RC dimerization assay” value is under 500 nM.

For the molecule Ac-VHFQFPADLWEFVRR-NH2 [peptide of SEQ ID NO: 134], the “IC50 in IL-17RA/IL7RC dimerization assay” value is under 500 nM. In the case of Ac-VHFQFPQDLWEWVRR-NH2 [peptide of SEQ ID NO: 150], the “IC50 in IL-17RA/IL7RC dimerization assay” value was under 500 nM. Regarding {N‑acetylglucosamine-N‑acetylmuramic acid}-IMVTIPADLYEWIEE [BIO-3], the “IC50 in IL-17RA/IL7RC dimerization assay” value was under 1000 nM. For Ac-AHVTIPADLWDWINK-NH2 [peptide of SEQ ID NO: 158], the “IC50 in IL-17RA/IL7RC dimerization assay” value was under 10000 nM. The same measure, in the same setting: under Ac-VHFQFPQEWYNWFRR-NH2 [peptide of SEQ ID NO: 154] stands under 500 nM. Take Ac-VHFTIPQDWWEWVRR-NH2 [peptide of SEQ ID NO: 146]: the “IC50 in IL-17RA/IL7RC dimerization assay” value is under 500 nM. In the case of Ac-IHVTIPADLYDWINK-NH2 [peptide of SEQ ID NO: 6], the “IC50 in IL-17RA/IL7RC dimerization assay” value is under 400 nM. Take Ac-IHVTIPADLWDWVRR-NH2 [peptide of SEQ ID NO: 14]: the “IC50 in IL-17RA/IL7RC dimerization assay” value is under 400 nM. Consider Ac-VHFTIPQDLYEWVRR-NH2 [peptide of SEQ ID NO: 126], for which the “IC50 in IL-17RA/IL7RC dimerization assay” value was under 500 nM. Take {capric acid}-IMVTIPADLYEWIEE [BIO-4]: the “IC50 in IL-17RA/IL7RC dimerization assay” value was under 1000 nM. Take Ac-VHFQFPQDWWEWFRR-NH2 [peptide of SEQ ID NO: 141]: the “IC50 in IL-17RA/IL7RC dimerization assay” value is under 500 nM. As for Ac-VHVTIPADLWNWVRR-NH2 [peptide of SEQ ID NO: 119], the “IC50 in IL-17RA/IL7RC dimerization assay” value is under 500 nM. Turning to Ac-VHVTIPADLYNFFRR-NH2 [peptide of SEQ ID NO: 149], the “IC50 in IL-17RA/IL7RC dimerization assay” value was under 500 nM. For the molecule Ac-VHFTIPQDLYNWRR-NH2 [peptide of SEQ ID NO: 151], the “IC50 in IL-17RA/IL7RC dimerization assay” value is under 500 nM.

On to Ac-IHVTIPADLWDWINR-NH2 [peptide of SEQ ID NO: 10], for which the “IC50 in IL-17RA/IL7RC dimerization assay” value was under 400 nM. Same read-out and setting: the figure for Ac-VHVYIPAELWEWVRR-NH2 [peptide of SEQ ID NO: 122] is under 500 nM. Same read-out and setting: under Ac-VHVTIPADLWEFVRR-NH2 [peptide of SEQ ID NO: 120] stands under 500 nM; under Ac-VHFQFPQDWWNWVRR-NH2 [peptide of SEQ ID NO: 139], under 500 nM. The same measure, in the same setting: under Ac-VHFQIPQDLYNFFRR-NH2 [peptide of SEQ ID NO: 153] stands under 500 nM; under Ac-VHFQFPADLWNWVRR-NH2 [peptide of SEQ ID NO: 133], under 500 nM; under Ac-VHFTIPADFWEWFRR-NH2 [peptide of SEQ ID NO: 142], under 500 nM. For the molecule Ac-VHVTFPADLWEWFRR-NH2 [peptide of SEQ ID NO: 144], the “IC50 in IL-17RA/IL7RC dimerization assay” value is under 500 nM. As to Ac-LHVTIPADLWDWINK-NH2 [peptide of SEQ ID NO: 160], the “IC50 in IL-17RA/IL7RC dimerization assay” value is under 10000 nM. In the case of IMVTIPADLYEWIEEQ-{N‑acetylglucosamine} [BIO-2], the “IC50 in IL-17RA/IL7RC dimerization assay” value is under 1000 nM. The same measure, in the same setting: under Ac-VHFQIPQDWWEWVRR-NH2 [peptide of SEQ ID NO: 137] stands under 500 nM; under Ac-VHFQFPADLWEWVRR-NH2 [peptide of SEQ ID NO: 130], under 500 nM; under Ac-VHVTIPADLYEWVRR-NH2 [peptide of SEQ ID NO: 118], under 500 nM.

As to Ac-VHFTFPQDLWEWVRR-NH2 [peptide of SEQ ID NO: 124], the “IC50 in IL-17RA/IL7RC dimerization assay” value is under 500 nM. With Ac-VHFTFPQDLYNFVRR-NH2 [peptide of SEQ ID NO: 148], the “IC50 in IL-17RA/IL7RC dimerization assay” value was under 500 nM. With Ac-VHFTFPQDFWEWVRR-NH2 [peptide of SEQ ID NO: 125], the “IC50 in IL-17RA/IL7RC dimerization assay” value is under 500 nM. For Ac-VHFQFPADLWEWFRR-NH2 [peptide of SEQ ID NO: 135], the “IC50 in IL-17RA/IL7RC dimerization assay” value is under 500 nM. For {ascorbic acid}-IMVTIPADLYEWIEE [BIO-5], the “IC50 in IL-17RA/IL7RC dimerization assay” value was under 1000 nM. On to Ac-VRFQFGQEWYNFFRR-NH2 [peptide of SEQ ID NO: 155], for which the “IC50 in IL-17RA/IL7RC dimerization assay” value was under 500 nM.

Turning to Ac-VHVTIPQDFWEWFRR-NH2 [peptide of SEQ ID NO: 145], the “IC50 in IL-17RA/IL7RC dimerization assay” value is under 500 nM. On to Ac-VHFTIPADLYNFVRR-NH2 [peptide of SEQ ID NO: 152], for which the “IC50 in IL-17RA/IL7RC dimerization assay” value is under 500 nM. On to {N‑acetylmuramic acid}-IMVTIPADLYEWIEE [BIO-1], for which the “IC50 in IL-17RA/IL7RC dimerization assay” value was under 1000 nM. Regarding Ac-GHVTIPADLWDWINK-NH2 [peptide of SEQ ID NO: 159], the “IC50 in IL-17RA/IL7RC dimerization assay” value is under 10000 nM.

The target in a further test is T1, IL-17A (agonist in the IL-17RA/IL17RC …). The test is described as follows: cell-based or functional assay. The source holds these as a separate data set.
With Ac-IHVTIPADLWDWINE-NH2 [peptide of SEQ ID NO: 12], the “IC50, % inhibition of IL-17A-induced IL-17RA/IL17RC dimerization (PathHunter cytokine receptor assay)” value came to 118 nM. The same measure, in the same setting: under Ac-IHVTIPADLYEWINK-NH2 (not fully specified) [peptide of SEQ ID NO: 7] stands 103 nM; under Ac-IHVTIPADLWDWVRR-NH2 [peptide of SEQ ID NO: 14], 380 nM.

As for Ac-IHVTIPADLWDWINR-NH2 [peptide of SEQ ID NO: 10], the “IC50, % inhibition of IL-17A-induced IL-17RA/IL17RC dimerization (PathHunter cytokine receptor assay)” value turned out to be 263 nM.

For the origin of these results see patent publication US20220112244A1 (DOMPE FARMACEUTICI S P A, published 2022).
